Test results reported in US20210077621A1 (published 2021).

Target: human MASP-2 (human, UniProt O00187 16-686)
Test: cell-based or functional assay

Sequence of human MASP-2 (O00187 16-686): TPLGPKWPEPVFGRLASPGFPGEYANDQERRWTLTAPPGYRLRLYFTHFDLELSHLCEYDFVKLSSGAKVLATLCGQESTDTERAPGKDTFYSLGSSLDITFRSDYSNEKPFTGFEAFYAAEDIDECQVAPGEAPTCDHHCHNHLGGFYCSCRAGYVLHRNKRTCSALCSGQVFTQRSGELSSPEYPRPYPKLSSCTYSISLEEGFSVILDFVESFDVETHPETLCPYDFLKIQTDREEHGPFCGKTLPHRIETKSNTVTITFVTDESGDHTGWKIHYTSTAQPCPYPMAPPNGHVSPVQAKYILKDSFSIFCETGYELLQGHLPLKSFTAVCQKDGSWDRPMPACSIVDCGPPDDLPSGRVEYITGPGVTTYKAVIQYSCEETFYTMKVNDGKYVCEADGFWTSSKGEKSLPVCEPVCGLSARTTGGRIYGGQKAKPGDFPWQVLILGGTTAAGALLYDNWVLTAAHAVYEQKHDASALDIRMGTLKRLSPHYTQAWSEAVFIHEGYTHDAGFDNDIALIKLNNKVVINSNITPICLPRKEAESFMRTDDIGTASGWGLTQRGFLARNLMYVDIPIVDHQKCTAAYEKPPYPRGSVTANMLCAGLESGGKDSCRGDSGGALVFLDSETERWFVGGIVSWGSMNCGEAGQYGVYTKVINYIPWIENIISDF

1% human serum C3 assay (IC50 nM): 26 nM
90% human serum C3 assay (IC50 nM): > 1000 nM
90% human serum C4 assay (IC50 nM): 140 nM
B1: 17D20m_d3521N11 (scFv, V domains shown)
VH: QVTLKESGPVLVKPTETLTLTCTVSGFSLSRGKMGVSWIRQPPGKALEWLAHIFSSDEKSYRTSLKSRLTISKDTSKNQVVLTMTNMDPVDTATYYCARIRRGGIDYWGQGTLVTVSS
VL: SYELIQPPSVSVAPGQTATITCAGDNLGKKRVHWYQQRPGQAPVLVIYDDSDRPSGIPDRFSASNSGNTATLTITRGEAGDEADYYCQVWDIATDHVVFGGGTKLTVL
